Laboratory results from publication PMC5629210.

Target: SRGAP1 (UniProt Q7Z6B7)
Assay: GFP-trap of SRGAP1-GFP, blot for cortactin-mCherry
Details: reference: wild type cortactin-mCherry; sites Y421,Y470,Y486

binding against the reference: stronger
Substance: cortactin (from UniProt Q14247) 3YF cortactin-mCherry
